Laboratory results: paper PMC7891180, “Exploring the Role of a Cytokinin-Activating Enzyme LONELY GUY in Unicellular Microalga Chlorella variabilis” (Frontiers in Plant Science, 2021)

Assays:
[1] = substrate: C/C(=C\CNc1ncnc2c1ncn2[C@@H]1O[C@H](COP(=O)(O)O)[C@@H](O)[C@H]1O)CO; assay: purified protein; type: biochemical, Chlorella variabilis; conditions: 50 mM Tris, 1 mM MgCl2, 1 mM DTT, pH 7, 30 °C
[2] = substrate: CC(C)=CCNc1ncnc2c1ncn2[C@@H]1O[C@H](COP(=O)(O)O)[C@@H](O)[C@H]1O; assay: purified protein; type: biochemical, Chlorella variabilis; conditions: 50 mM Tris, 1 mM MgCl2, 1 mM DTT, pH 7, 30 °C

B1: CvarLOG1 (Chlorella variabilis) (protein)
chain: MADSQPASFRKIAVFCGASSGSNPLYIEAARLLGAEMARRGIGLVYGGGNVGLMGAVAEAVGSRLGPDQVIGVIPAALEPREISGTTVGEIRVVGSMHERKAMMFEEADAFIMIPGGYGTLDETLEITTWQQLGFHTKPVGLLNINGFFNKLLAFLDHATQEGFIRPSSRAILVSGDTPGELIDTLAAYQAPPSLLRLASEGKLGVHERG
notes: native protein 211 residues
- Km [1]: 133.5 µM
- Km [2]: 54.99 µM
